According to PMC3655812 (Molecular Biology of the Cell, 2013):
Changes are numbered by the printed parent chain. Numbers in names are those of the source.

B1: MBP-Mgm101 (wild-type fusion of maltose-binding protein with Mgm101 lacking the mitochondrial targeting signal) (natural protein, yeast, UniProt P32787 23-269, looked up)
chain: VVSTGTSNTATAGAVRKSFNSTETKPVFATKSEAGNGSHMKEYSSGINSKLGGTPLETRSTADDSLNNSYKQVKGDIDWYTSWYGLGMKPFEAKVQKDLIEPLDPKDIEIKPDGLIYLPEIKYRRILNKAFGAGGWGLVPRSQTIVTSKLVTREYGLICHGQLISVARGEQDYFNEAGIPTATEGCKSNALMRCCKDLGVGSELWDPVFIKKFKVDHCTEKFVEHVTTKRKKKIWLRKDRQVEYPYK
B2: Mgm101^K253A (tag-free) (natural protein, yeast, UniProt P32787 23-269, looked up)
chain: B1 chain with K231A
B3: MBP-Mgm101^Y268A (natural protein, yeast, UniProt P32787 23-269, looked up)
chain: B1 chain with Y246A
B4: MBP-Mgm101^(K251-K253)A (natural protein, yeast, UniProt P32787 23-269, looked up)
chain: B1 chain with K229A, R230A, K231A
B5: Mgm101^(K251-K253)A (tag-free) (natural protein, yeast, UniProt P32787 23-269, looked up)
chain: B1 chain with K229A, R230A, K231A
B6: Mgm101^Y139A (tag-free) (natural protein, yeast, UniProt P32787 23-269, looked up)
chain: B1 chain with Y117A
B7: MBP-Mgm101^K253A (natural protein, yeast, UniProt P32787 23-269, looked up)
chain: B1 chain with K231A
B8: MBP-Mgm101^W257A (natural protein, yeast, UniProt P32787 23-269, looked up)
chain: B1 chain with W235A

Target: the molecule itself
Assay: SEC

Protein | binding result
B1 | binds
B2 | binds
B3 | binds
B4 | binds
B5 | binds
B6 | binds
B7 | binds
B8 | binds
